B1: KtrB from Vibrio alginolyticus with deletion of residues 2-19 (natural protein)
chain: MAKGGEPRIILLSFLGVLLPSAVLLTLPVFSVSGLSITDALFTATSAISVTGLGVVDTGQHFTLAGKILLMCLMQIGGLGQMTLSAVLLYMFGVRLSLRQQALAKEALGQERQVNLRRLVKKIVTFALVAEAIGFVFLSYRWVPEMGWQTGMFYALFHSISAFNNAGFALFSDSMMSFVNDPLVSFTLAGLFIFGGLGFTVIGDVWRHWRKGFHFLHIHTKIMLIATPLLLLVGTVLFWLLERHNPNTMGSLTTGGQWLAAFFQSASARTAGFNSVDLTQFTQPALLIMIVLMLIGAGSTSTGGGIKVSTFAVAFMATWTFLRQKKHVVMFKRTVNWPTVTKSLAIIVVSGAILTTAMFLLMLTEKASFDKVMFETISAFATVGLTAGLTAELSEPGKYIMIVVMIIGRIGPLTLAYMLARPEPTLIKYPEDTVLTG
notes: KtrB, Vibrio alginolyticus, with the N-terminal residues 2-19 deleted; Two KtrB dimers stand in the solved assembly: KtrBΔ2-19_(4)A8, deposited as KtrB2A8B2 with the N-terminal KtrB deletion; also called KtrBΔ2-19; KtrAB_(Δ2-19); source: purified as a complex with KtrA (SEC)
B4: KtrB from Vibrio alginolyticus, tagless, full length (natural protein, UniProt O87953 1-455, looked up)
chain: MTQFHQRGVFYVPDGKRDKAKGGEPRIILLSFLGVLLPSAVLLTLPVFSVSGLSITDALFTATSAISVTGLGVVDTGQHFTLAGKILLMCLMQIGGLGQMTLSAVLLYMFGVRLSLRQQALAKEALGQERQVNLRRLVKKIVTFALVAEAIGFVFLSYRWVPEMGWQTGMFYALFHSISAFNNAGFALFSDSMMSFVNDPLVSFTLAGLFIFGGLGFTVIGDVWRHWRKGFHFLHIHTKIMLIATPLLLLVGTVLFWLLERHNPNTMGSLTTGGQWLAAFFQSASARTAGFNSVDLTQFTQPALLIMIVLMLIGAGSTSTGGGIKVSTFAVAFMATWTFLRQKKHVVMFKRTVNWPTVTKSLAIIVVSGAILTTAMFLLMLTEKASFDKVMFETISAFATVGLTAGLTAELSEPGKYIMIVVMIIGRIGPLTLAYMLARPEPTLIKYPEDTVLTG
notes: KtrB, transmembrane pore-forming subunit of the K+ channel KtrAB, Vibrio alginolyticus; C-terminal residue G455; Homodimer; It was in DDM for the deposited structures and in MSP2N2 nanodiscs with E. coli polar lipids for one cryo-EM data set; also called VaKtrB; KtrB dimer; source: E. coli LB2003, membranes mixed with KtrA-containing cytosol, solubilised in DDM, co-purified with KtrA (Ni-NTA, …)

Series [1] deals with T1, KtrAB (native KtrB2A8 complex) (Vibrio alginolyticus, UniProt O87952).
T1 construct: gene ktrA; full-length complex in DDM; tagless KtrB membranes (E. coli LB2003) mixed with KtrA (C-terminal His tag, removed by 3C protease); KtrA octamer with one KtrB dimer; with Ktr system potassium uptake protein B
T1 sequence (O87952 1-220): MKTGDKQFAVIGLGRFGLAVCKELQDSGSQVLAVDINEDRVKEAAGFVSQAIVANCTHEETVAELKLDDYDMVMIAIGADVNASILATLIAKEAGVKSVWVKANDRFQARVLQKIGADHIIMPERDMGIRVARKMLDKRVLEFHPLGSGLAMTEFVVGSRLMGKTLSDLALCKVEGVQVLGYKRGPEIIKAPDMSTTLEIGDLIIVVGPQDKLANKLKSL
T1 sequence (O87953 1-455 partner): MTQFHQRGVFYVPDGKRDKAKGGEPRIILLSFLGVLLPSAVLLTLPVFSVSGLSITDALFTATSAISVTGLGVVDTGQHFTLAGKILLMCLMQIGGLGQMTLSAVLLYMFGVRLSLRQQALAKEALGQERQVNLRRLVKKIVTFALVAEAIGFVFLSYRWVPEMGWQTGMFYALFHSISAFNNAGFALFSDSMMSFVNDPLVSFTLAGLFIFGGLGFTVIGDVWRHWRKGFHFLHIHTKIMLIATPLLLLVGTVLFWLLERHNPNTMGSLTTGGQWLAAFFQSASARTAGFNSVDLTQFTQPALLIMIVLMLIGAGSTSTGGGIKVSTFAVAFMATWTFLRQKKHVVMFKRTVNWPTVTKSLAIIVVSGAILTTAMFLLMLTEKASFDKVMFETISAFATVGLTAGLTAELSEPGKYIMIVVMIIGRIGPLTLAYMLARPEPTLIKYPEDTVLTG
Put plainly: cryo-EM structure, […] Å. Format: binding. The note with it: co-purified ADP, sample prepared with ATP and MgCl2.

The target in series [2] is T2, KtrA (VaKtrA, KtrAC3H) (Vibrio alginolyticus, UniProt O87952).
T2 construct: full-length cytosolic RCK subunit, C-terminal 3C-cleavable His tag (KtrAC3H), eluted with imidazole (tag kept), expressed in E. coli C43(DE3)ΔacrAB; homooctameric ring
T2 sequence (O87952 1-220): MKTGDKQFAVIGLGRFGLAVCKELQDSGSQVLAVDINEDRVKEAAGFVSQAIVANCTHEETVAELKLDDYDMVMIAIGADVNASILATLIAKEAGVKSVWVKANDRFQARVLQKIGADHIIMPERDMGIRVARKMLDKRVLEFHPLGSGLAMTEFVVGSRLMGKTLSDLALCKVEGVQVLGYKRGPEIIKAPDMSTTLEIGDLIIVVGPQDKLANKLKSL
Put plainly: isothermal titration calorimetry. Type of series: binding. Conditions: pH 8, 24 °C, 20 mM HEPES, 140 mM NaCl, 60 mM KCl; one-site fit; no KtrB.

Series [3] concerns the target T2, KtrA (VaKtrA, KtrAC3H). Nature of the series: differential scanning fluorimetry (SYPRO Orange). Type of series: binding. The note with it: pH 7.5, 20 mM Tris-HCl, 140 mM NaCl, 60 mM KCl; 5 µM KtrA; melting temperature with ligand, not a shift.
The target of series [4] is T3, KtrAB (KtrB2A8B2 complex) (Vibrio alginolyticus, UniProt O87952).
T3 construct: gene ktrA; nonphysiological assembly with a second KtrB dimer on the KtrA octamer; full-length, in DDM; wild type purified via ATP agarose; KtrA C-terminal His tag removed by 3C protease; with Ktr system potassium uptake protein B
T3 sequence (O87952 1-220): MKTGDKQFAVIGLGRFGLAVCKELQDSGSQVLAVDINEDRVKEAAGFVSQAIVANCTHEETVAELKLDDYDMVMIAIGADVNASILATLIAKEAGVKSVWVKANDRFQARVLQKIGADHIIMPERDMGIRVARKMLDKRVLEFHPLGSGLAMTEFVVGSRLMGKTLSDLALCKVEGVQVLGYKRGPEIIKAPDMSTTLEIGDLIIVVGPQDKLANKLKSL
T3 sequence (O87953 1-455 partner): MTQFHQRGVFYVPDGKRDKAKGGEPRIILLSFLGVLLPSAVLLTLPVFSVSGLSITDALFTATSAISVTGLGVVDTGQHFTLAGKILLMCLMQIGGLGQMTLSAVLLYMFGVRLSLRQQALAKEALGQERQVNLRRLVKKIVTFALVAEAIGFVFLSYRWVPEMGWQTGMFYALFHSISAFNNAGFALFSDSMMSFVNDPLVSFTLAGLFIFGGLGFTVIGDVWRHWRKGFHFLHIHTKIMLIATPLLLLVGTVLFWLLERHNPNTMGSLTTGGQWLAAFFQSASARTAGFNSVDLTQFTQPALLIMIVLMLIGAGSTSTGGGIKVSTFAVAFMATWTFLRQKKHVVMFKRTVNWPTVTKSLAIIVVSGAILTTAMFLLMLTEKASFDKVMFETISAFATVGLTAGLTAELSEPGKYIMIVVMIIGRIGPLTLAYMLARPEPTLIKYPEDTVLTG
Nature of the series: cryo-EM structure, […] Å. Type of series: binding. The note with it: ADP found despite ATP agarose and ATP in the sample; Mg2+ at alpha-phosphate.

Series [5] concerns the molecule itself. Put plainly: cryo-EM structure; KtrAB with KtrB Δ2-19, KtrBΔ2-19_(4)A8 assembly, supplemented with 1 mM ATP, 3.6 Å, 58,000 particles.
Series [6] deals with the molecule itself. Put plainly: cryo-EM structure; natively assembled KtrB2A8 complex in DDM, 2.8 Å, C2 symmetry; sample supplemented with 1 mM ATP and 2 mM MgCl2, ADP found bound.
The target in series [7] is B4. The series is described as above. The note with it: both partners purified.
The target in series [8] is B1. Put plainly: cryo-EM structure; KtrAB with KtrB Δ2-19, KtrBΔ2-19_(4)A8 assembly, supplemented with 1 mM ATP, 3.6 Å, 58,000 particles. The note with it: both partners purified.
Series [9] deals with the molecule itself. Put plainly: cryo-EM structure; nonphysiological KtrB2A8B2 assembly purified via ATP agarose, in DDM, 2.5 Å, D2 symmetry; 1 mM ATP and 2 mM MgCl2, ADP found bound.
Series [10] has as its target B4. The description is as above. The note with it: both partners purified.

The source of these data is PMC12059179, “A short intrinsically disordered region at KtrB’s N-terminus facilitates allosteric regulation of K^+ channel KtrAB” (Nature Communications, 2025).

Regarding `Nc1ncnc2c1ncn2[C@@H]1O[C@H](COP(=O)(O)OP(=O)(O)O)[C@@H](O)[C@H]1O` [ADP], the “cryo-EM structure, 2.8 Å” value in [1] is given as “KtrA ring contains non-protein densities corresponding to ADP molecules”. In addition, the equilibrium dissociation constant (Kd) in series [2] amounted to 3400 nM. Moreover, in [3], the Tm came out at 67 °C. For the same molecule, the “cryo-EM structure, 2.5 Å” value in series [4] is on record as “ADP molecules bound to the N lobes of each of the eight KtrA subunits”.

For `Nc1ncnc2c1ncn2[C@@H]1O[C@H](COP(=O)(O)OP(=O)(O)OP(=O)(O)O)[C@@H](O)[C@H]1O` [ATP], in [2], the affinity, expressed as Kd, was 2400 nM. Further, in [3], the Tm turned out to be 55 °C.

Consider B1, for which the binding result in series [5] is on record as “binds”.

B2: KtrA from Vibrio alginolyticus, His tag cleaved off with 3C protease (natively assembled KtrB2A8 preparation) (natural protein, UniProt O87952 1-220, looked up)
chain: MKTGDKQFAVIGLGRFGLAVCKELQDSGSQVLAVDINEDRVKEAAGFVSQAIVANCTHEETVAELKLDDYDMVMIAIGADVNASILATLIAKEAGVKSVWVKANDRFQARVLQKIGADHIIMPERDMGIRVARKMLDKRVLEFHPLGSGLAMTEFVVGSRLMGKTLSDLALCKVEGVQVLGYKRGPEIIKAPDMSTTLEIGDLIIVVGPQDKLANKLKSL
notes: KtrA, cytosolic RCK subunit of the K+ channel KtrAB, Vibrio alginolyticus; full-length KtrAB; Residues of the 3C site may remain at the C-terminus after cleavage; also called VaKtrA; KtrAC3H; source: E. coli C43(DE3)ΔacrAB; not shown: His tag, C-terminal, cleaved
Consider B2, for which, in series [6], the “stoichiometry N” value is 8. In addition, the binding result in series [7] was “binds”.

B3: KtrA from Vibrio alginolyticus with C-terminal His tag (KtrAC3H), eluted with imidazole (natural protein, UniProt O87952 1-220, looked up)
chain: MKTGDKQFAVIGLGRFGLAVCKELQDSGSQVLAVDINEDRVKEAAGFVSQAIVANCTHEETVAELKLDDYDMVMIAIGADVNASILATLIAKEAGVKSVWVKANDRFQARVLQKIGADHIIMPERDMGIRVARKMLDKRVLEFHPLGSGLAMTEFVVGSRLMGKTLSDLALCKVEGVQVLGYKRGPEIIKAPDMSTTLEIGDLIIVVGPQDKLANKLKSL
notes: KtrA, cytosolic RCK subunit of the K+ channel KtrAB, Vibrio alginolyticus; full-length KtrAB; Same construct as m1; Here no 3C cleavage is reported: imidazole elution for isolated KtrA, and imidazole removal is mentioned before the ATP agarose step; also called VaKtrA; isolated KtrA ring; source: E. coli C43(DE3)ΔacrAB, purified (Ni-NTA eluted with imidazole, SEC); for KtrB2A8B2 also ATP agarose
In the case of B3, the binding result in [8] and in series [10] was “binds” throughout. Besides, the “stoichiometry N” value in series [9] is 8.

Regarding B4, the “stoichiometry N” value in series [6] stood at 2.
